The values that follow come from PMC8307404, “Crystal Structure-Guided Design of Bisubstrate Inhibitors and Photoluminescent Probes for Protein Kinases of the PIM Family” (Molecules, 2021).

Common to all, as to assay: Kinase profiling (radiometric filter-binding)
Holding throughout (assay type): biochemical

The target of one series is T1, ASK1 (Homo sapiens, UniProt Q99683).
T1 sequence (Q99683 1-1374): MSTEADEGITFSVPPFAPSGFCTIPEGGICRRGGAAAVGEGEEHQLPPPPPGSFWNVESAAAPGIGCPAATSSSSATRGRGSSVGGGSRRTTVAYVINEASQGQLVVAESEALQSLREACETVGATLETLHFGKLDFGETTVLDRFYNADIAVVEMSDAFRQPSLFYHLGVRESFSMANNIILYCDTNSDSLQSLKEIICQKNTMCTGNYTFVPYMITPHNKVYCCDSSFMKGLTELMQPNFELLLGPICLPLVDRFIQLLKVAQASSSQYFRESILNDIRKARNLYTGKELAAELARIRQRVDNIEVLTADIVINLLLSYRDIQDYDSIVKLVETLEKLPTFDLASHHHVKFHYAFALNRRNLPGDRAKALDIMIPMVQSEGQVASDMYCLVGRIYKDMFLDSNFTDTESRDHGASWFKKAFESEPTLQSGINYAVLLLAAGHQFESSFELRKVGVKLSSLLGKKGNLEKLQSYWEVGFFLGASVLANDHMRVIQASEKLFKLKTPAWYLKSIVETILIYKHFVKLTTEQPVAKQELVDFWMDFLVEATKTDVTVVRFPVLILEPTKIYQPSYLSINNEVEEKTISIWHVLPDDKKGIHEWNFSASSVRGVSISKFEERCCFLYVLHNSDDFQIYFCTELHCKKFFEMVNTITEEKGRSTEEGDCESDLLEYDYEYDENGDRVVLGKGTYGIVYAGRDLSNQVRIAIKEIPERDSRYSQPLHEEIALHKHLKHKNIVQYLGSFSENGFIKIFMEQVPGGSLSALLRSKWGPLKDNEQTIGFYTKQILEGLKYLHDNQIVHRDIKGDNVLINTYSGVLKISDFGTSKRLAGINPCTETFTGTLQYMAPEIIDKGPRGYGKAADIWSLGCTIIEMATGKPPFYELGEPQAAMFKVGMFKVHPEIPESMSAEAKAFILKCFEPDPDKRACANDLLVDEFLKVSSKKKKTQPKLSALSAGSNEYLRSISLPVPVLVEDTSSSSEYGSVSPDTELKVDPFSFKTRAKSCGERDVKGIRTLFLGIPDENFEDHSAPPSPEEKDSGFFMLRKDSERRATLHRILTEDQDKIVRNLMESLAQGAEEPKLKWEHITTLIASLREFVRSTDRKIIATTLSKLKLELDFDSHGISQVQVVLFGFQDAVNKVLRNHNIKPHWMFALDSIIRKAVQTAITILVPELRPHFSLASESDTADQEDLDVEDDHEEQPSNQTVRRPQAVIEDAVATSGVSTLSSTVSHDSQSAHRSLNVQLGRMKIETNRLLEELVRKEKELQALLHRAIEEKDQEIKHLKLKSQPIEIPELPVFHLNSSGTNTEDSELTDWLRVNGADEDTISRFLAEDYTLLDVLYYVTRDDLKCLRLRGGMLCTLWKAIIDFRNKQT
Particulars: ASK1, 1 µM inhibitor; read-out: Residual activity, %. In short, it runs like this: (§1)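 Percent activity retained relative to the no-inhibitor reaction is given. Assays used human enzymes, radiolabel filter capture, ATP concentrations not exceeding the respective KM, and a final inhibitor level of 1 µM.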

The target in another series is T2, TAK1 (Homo sapiens, UniProt O43318).
T2 sequence (O43318 1-303 limits assumed): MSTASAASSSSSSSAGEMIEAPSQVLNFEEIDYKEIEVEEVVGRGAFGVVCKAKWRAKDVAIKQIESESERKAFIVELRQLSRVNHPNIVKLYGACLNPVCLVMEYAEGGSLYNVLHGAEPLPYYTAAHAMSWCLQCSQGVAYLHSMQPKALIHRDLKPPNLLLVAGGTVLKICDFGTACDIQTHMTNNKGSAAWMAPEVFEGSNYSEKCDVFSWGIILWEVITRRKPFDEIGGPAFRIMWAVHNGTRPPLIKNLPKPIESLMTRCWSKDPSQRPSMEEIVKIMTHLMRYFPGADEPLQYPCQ
Particulars: TAK1, 1 µM inhibitor; read-out: Residual activity, %. The method, boiled down: as §1

The target in another series is SIK3 (Homo sapiens, UniProt Q9Y2K2). Particulars: SIK3, 1 µM inhibitor; read-out: Residual activity, %. In short, it runs like this:
as §1

The target in a further series is JNK2 (Homo sapiens, UniProt P45984). The following applies: JNK2, 1 µM inhibitor; read-out: Residual activity, %. The method, boiled down: as §1
Chain of JNK2 (P45984 whole entry): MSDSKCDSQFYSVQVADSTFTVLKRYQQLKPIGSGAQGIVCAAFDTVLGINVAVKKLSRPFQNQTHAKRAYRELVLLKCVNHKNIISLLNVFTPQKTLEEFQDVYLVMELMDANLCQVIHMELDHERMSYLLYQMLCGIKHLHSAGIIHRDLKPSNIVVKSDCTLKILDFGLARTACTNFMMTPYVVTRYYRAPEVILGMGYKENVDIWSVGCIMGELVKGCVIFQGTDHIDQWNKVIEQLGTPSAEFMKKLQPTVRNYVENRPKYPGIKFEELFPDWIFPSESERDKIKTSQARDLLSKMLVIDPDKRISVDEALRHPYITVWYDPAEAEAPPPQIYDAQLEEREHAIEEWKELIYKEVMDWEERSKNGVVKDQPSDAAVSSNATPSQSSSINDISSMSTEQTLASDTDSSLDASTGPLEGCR
The next series addresses T3, NEK2 (Homo sapiens, UniProt P51955).
T3 sequence (P51955 1-445): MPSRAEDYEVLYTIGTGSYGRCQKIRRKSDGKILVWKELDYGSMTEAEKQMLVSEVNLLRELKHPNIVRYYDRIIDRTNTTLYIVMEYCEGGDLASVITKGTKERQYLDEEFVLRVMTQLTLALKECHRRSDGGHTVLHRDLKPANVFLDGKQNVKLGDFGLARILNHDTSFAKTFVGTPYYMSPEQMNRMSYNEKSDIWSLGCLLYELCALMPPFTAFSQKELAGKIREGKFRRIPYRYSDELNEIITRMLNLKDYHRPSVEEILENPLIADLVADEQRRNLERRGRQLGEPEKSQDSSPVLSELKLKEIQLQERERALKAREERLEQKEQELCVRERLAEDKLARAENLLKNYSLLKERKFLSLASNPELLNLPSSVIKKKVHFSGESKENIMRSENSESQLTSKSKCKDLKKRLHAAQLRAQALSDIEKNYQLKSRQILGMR
The following applies: NEK2 (letter lost), 1 µM inhibitor; read-out: Residual activity, %. The method, boiled down:
as §1

In a further series the target is TIE2 (Homo sapiens, UniProt Q02763). The following applies: TIE2, 1 µM inhibitor; read-out: Residual activity, %. The method, boiled down: as §1
Chain of TIE2 (Q02763 23-1124): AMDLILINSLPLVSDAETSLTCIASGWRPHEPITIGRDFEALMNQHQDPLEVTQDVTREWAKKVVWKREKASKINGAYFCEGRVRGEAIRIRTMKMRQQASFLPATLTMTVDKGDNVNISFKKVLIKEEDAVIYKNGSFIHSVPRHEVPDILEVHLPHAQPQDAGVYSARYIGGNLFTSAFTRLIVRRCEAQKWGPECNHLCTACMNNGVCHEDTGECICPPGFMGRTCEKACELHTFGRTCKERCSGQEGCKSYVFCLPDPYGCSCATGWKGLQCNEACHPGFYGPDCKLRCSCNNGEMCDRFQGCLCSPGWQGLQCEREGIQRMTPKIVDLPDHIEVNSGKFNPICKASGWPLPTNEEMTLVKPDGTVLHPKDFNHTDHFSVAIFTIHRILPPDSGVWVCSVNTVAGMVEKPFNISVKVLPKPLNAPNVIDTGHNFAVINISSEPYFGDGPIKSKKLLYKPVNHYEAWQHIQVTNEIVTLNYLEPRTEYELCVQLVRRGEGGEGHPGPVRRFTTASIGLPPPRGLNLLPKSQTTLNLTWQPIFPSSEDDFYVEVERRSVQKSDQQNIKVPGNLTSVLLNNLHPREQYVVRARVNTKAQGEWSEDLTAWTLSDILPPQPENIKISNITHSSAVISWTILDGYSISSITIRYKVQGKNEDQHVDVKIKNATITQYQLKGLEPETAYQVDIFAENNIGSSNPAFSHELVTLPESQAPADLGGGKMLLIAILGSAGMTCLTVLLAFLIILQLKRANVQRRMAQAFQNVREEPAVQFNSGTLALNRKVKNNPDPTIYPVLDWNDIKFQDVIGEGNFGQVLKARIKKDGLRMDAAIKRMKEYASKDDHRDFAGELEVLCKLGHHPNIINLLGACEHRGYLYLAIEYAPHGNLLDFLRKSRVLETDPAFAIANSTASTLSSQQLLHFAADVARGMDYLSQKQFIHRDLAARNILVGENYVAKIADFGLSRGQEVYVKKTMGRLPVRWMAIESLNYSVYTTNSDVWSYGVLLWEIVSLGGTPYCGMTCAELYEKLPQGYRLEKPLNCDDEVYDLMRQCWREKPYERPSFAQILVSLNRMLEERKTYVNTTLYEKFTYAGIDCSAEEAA

Square brackets hold non-standard residues; d marks the D form. Peptide text beside a SMILES is read from it. * marks the point of attachment. X3 = O=C(CCCCCNCc1nc2c(sc3cc(Br)cnc32)c(=O)[nH]1)*

Chain of SIK3 (Q9Y2K2 whole entry): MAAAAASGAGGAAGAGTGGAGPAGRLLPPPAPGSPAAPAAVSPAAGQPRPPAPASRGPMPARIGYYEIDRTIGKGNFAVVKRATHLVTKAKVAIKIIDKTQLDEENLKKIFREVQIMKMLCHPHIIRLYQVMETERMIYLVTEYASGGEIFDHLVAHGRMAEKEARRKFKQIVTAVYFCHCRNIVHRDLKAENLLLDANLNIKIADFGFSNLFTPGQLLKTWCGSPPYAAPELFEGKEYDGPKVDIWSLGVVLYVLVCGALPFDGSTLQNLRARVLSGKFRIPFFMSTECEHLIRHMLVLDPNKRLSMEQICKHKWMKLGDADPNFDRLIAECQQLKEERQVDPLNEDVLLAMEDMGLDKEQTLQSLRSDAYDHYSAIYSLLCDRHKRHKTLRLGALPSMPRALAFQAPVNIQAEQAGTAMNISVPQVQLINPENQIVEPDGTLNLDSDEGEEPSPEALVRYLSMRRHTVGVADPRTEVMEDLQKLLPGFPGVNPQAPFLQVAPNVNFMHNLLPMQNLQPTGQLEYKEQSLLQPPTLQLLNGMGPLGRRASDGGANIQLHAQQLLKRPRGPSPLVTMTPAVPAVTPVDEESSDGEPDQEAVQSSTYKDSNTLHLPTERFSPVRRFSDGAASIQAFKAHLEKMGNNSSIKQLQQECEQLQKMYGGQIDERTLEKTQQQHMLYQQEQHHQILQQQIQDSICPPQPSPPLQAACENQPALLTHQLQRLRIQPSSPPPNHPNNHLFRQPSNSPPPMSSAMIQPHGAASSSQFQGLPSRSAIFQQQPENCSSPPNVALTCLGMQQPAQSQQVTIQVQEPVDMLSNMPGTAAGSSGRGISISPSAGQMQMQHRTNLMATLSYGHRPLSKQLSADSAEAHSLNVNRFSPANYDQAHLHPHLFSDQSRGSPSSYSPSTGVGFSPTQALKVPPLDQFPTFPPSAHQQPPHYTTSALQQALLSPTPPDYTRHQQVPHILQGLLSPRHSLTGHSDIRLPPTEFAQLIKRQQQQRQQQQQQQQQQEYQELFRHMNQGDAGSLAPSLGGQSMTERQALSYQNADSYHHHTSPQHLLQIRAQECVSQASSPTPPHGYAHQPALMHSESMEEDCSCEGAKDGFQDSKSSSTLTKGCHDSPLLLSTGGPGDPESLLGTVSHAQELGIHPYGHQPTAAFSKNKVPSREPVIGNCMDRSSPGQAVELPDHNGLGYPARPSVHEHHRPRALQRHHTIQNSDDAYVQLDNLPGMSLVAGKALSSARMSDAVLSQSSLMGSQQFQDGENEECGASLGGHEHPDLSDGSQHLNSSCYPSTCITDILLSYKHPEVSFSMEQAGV

Turning to `N=C(N)NCCC[C@@H](NC(=O)CCCCCNCc1nc2c(sc3cc(Br)cnc32)c(=O)[nH]1)C(=O)N[C@H](CCCNC(=N)N)C(=O)N[C@H](CCCNC(=N)N)C(=O)N[C@H](CCCNC(=N)N)C(=O)N[C@H](CCCNC(=N)N)C(=O)N[C@H](CCCNC(=N)N)C(=O)N[C@H](CCCCN)C(N)=O` [ARC-3126, BPTP-Ahx-(D-Arg)6-D-Lys-NH2] (X3-[dR][dR][dR][dR][dR][dR][dK]-NH2), the remaining activity at 1 µM with ASK1 came out at 121 ± 11%; with TAK1 it was 88 ± 17%; with SIK3 it was 117 ± 15%; with JNK2, 38 ± 13%; with NEK2, 91 ± 2%; with TIE2, 106%.

For `N=C(N)NCCC[C@@H](NC(=O)CNC(=O)[C@@H](CCCNC(=N)N)NC(=O)[C@@H](CCCNC(=N)N)NC(=O)CCCCCCCNCc1nc2c(sc3ccc(Br)cc32)c(=O)[nH]1)C(=O)N[C@H](CCCCN)C(N)=O` [Compound 2, BBTP-Aoc-(D-Arg)2-Gly-D-Arg-D-Lys-NH2], the remaining activity at 1 µM in the series with ASK1 was determined as 102 ± 5%; in the series with TAK1, 101 ± 1%; with SIK3, 97 ± 9%; with JNK2 it was 91 ± 7%; with NEK2, 119 ± 12%; with TIE2, 109 ± 9%.

As for `N=C(N)NCCC[C@@H](NC(=O)CNC(=O)[C@@H](CCCNC(=N)N)NC(=O)[C@@H](CCCNC(=N)N)NC(=O)Cn1cc(CNCc2nc3c(sc4ccc(Br)cc43)c(=O)[nH]2)nn1)C(=O)N[C@H](CCCCN)C(N)=O` [Compound 3, BBTP-Amt-(D-Arg)2-Gly-D-Arg-D-Lys-NH2], the remaining activity at 1 µM worked out at 101 ± 2% in the series with ASK1; 99 ± 10% with TAK1; 66 ± 6% with SIK3; 129 ± 21% with JNK2; 92 ± 1% in the series with NEK2; 103 ± 12% in the series with TIE2.

As to `N=C(N)NCCC[C@@H](NC(=O)CCCCCNC(=O)Cn1cnc2c(I)c(I)c(I)c(I)c21)C(=O)N[C@H](CCCNC(=N)N)C(=O)N[C@H](CCCNC(=N)N)C(=O)N[C@H](CCCNC(=N)N)C(=O)N[C@H](CCCNC(=N)N)C(=O)N[C@H](CCCNC(=N)N)C(=O)N[C@H](CCCCN)C(N)=O` [ARC-3125, TIBI-CH2-C(=O)-Ahx-(D-Arg)6-D-Lys-NH2], the remaining activity at 1 µM with ASK1 worked out at 93%; with TAK1 it was 9 ± 4%; with SIK3, 89 ± 7%; in the series with JNK2, 123 ± 7%; with NEK2, 21 ± 3%; in the series with TIE2, 104 ± 9%.

On to `N=C(N)NCCC[C@@H](NC(=O)CNC(=O)[C@@H](CCCNC(=N)N)NC(=O)[C@@H](CCCNC(=N)N)NC(=O)CCCCCCCNCc1nc2c(sc3cc(Br)cnc32)c(=O)[nH]1)C(=O)N[C@H](CCCCN)C(N)=O` [Compound 1, BPTP-Aoc-(D-Arg)2-Gly-D-Arg-D-Lys-NH2], for which the remaining activity at 1 µM with ASK1 is 99%; in the series with TAK1, 107 ± 3%; with SIK3 it was 106 ± 2%; with JNK2, 107 ± 1%; with NEK2, 108 ± 5%; with TIE2, 110 ± 6%.
